According to publication PMC10878793:

Assays:
[1] = molecular target: cytochrome P450 17A1 (Homo sapiens) (UniProt P05093); test: surface plasmon resonance; conditions: cited from earlier work
[2] = molecular target: human cytochrome b5 K24C, unlabeled (human) (UniProt P00167); test: SDS-PAGE with and without reducing agent; purified b5 variant run with or without β-mercaptoethanol (10%, v/v) or DTT; monomer at 17 kDa, dimer at 34 kDa; disulfide-linked dimer
[3] = molecular target: human cytochrome b5 T70C, unlabeled (human) (UniProt P00167); test: as above
[4] = molecular target: P450 17A1 peptide (putative b5 binding site of P450 17A1) (human); test: fluorescence polarisation; competition: nonlabeled WT b5 at various concentrations added to the complex of Alexa 488-b5 K77C (10 nM) and P450 17A1 peptide (100 μM)
[5] = molecular target: P450 17A1 peptide (putative b5 binding site of P450 17A1) (human); test: fluorescence polarisation; competition: nonlabeled WT b5 at various concentrations added to the complex of Alexa 488-b5 T70C (10 nM) and P450 17A1 peptide (100 μM)
[6] = molecular target: previously constructed Alexa 488-T70C-b5 (ref. 19; nonspecifically labelled) (human) (UniProt P00167); test: SDS-PAGE with and without reducing agent; purified b5 variant run with or without β-mercaptoethanol (10%, v/v) or DTT; monomer at 17 kDa, dimer at 34 kDa; disulfide-linked dimer
[7] = molecular target: Alexa 488-labeled human cytochrome b5 K77C (human) (UniProt P00167); test: fluorescence polarisation; P450 17A1 protein or P450 17A1 peptide added to Alexa 488-labeled b5 variant (10 nM) in 1 mM potassium phosphate buffer, pH 7.4, 384-well plate, 50 μl; anisotropy fitted with a quadratic equation
[8] = molecular target: Alexa 488-labeled human cytochrome b5 T70C (singly labelled at Cys-70, this paper) (human) (UniProt P00167); test: as above

cytochrome b5 (from UniProt P00167)
Kd [1]: 440 nM

human cytochrome b5 K24C, unlabeled (from UniProt P00167 1-134) (natural protein)
stoichiometry N [2]: 2

human cytochrome b5 T70C, unlabeled (from UniProt P00167 1-134) (natural protein)
stoichiometry N [3]: 2

human cytochrome b5, WT, nonlabeled (from UniProt P00167 1-134) (natural protein)
IC50 [4]: 223 nM
IC50 [5]: 129 nM

previously constructed Alexa 488-T70C-b5 (ref. 19; nonspecifically labelled) (from UniProt P00167 1-134) (natural protein)
stoichiometry N [6]: 2

B1: P450 17A1 peptide (putative b5 binding site of P450 17A1) (peptide)
peptide: RNRLLLLEATIR
Kd [7]: 52000 nM
Kd [8]: 113000 nM

B2: human cytochrome P450 17A1 (steroid 17α-hydroxylase/17,20-lyase) (enzyme)
chain: MWELVALLLLTLAYLFWPKRRCPGAKYPKSLLSLPLVGSLPFLPRHGHMHNNFFKLQKKYGPIYSVRMGTKTTVIVGHHQLAKEVLIKKGKDFSGRPQMATLDIASNNRKGIAFADSGAHWQLHRRLAMATFALFKDGDQKLEKIICQEISTLCDMLATHNGQSIDISFPVFVAVTNVISLICFNTSYKNGDPELNVIQNYNEGIIDNLSKDSLVDLVPWLKIFPNKTLEKLKSHVKIRNDLLNKILENYKEKFRSDSITNMLDTLMQAKMNSDNGNAGPDQDSELLSDNHILTTIGDIFGAGVETTTSVVKWTLAFLLHNPQVKKKLYEEIDQNVGFSRTPTISDRNRLLLLEATIREVLRLRPVAPMLIPHKANVDSSIGEFAVDKGTEVIINLWALHHNEKEWHQPDQFMPERFLNPAGTQLISPSVSYLPFGAGPRSCIGEILARQELFLIMAWLLQRFDLEVPDDGQLPSLEGIPKVVFLIDSFKVKIKVRQAWREAQAEGST
Kd [7]: 125 nM
Kd [8]: 379 nM
